Experimental data reported in article PMC9368491.

Target: β-catenin (endogenous) (UniProt P35222)
Test: anti-Cav-1 IP, β-catenin blot
Conditions: reference: WT Cav-1, DMSO; sites Y14

binding against the reference: weaker
Substance: Caveolin-1 (Cav-1) (from UniProt Q03135) Y14F Cav-1, DMSO
